Experimental data as given in the Human Domainome abundance scans (Beltran et al. 2025).
± gives the uncertainty stated by the source.

Test: abundance fitness (aPCA) (normalised: wild type 0, dead -1); higher = more abundant; growth selection in yeast, the domain comes from the species named
Conditions: Homo sapiens

| Substance | abundance fitness |
| --- | --- |
| Lipoamide acyltransferase component of branched-chain alpha-keto acid dehydrogenase complex, mitochondrial N184L, P11182 | -0.325 ± 0.11 |
| Lipoamide acyltransferase component of branched-chain alpha-keto acid dehydrogenase complex, mitochondrial N184P, P11182 | -1.08 ± 0.4 |
| Lipoamide acyltransferase component of branched-chain alpha-keto acid dehydrogenase complex, mitochondrial N184Q, P11182 | -0.16 ± 0.1 |
| Lipoamide acyltransferase component of branched-chain alpha-keto acid dehydrogenase complex, mitochondrial N184R, P11182 | -0.097 ± 0.072 |
| Lipoamide acyltransferase component of branched-chain alpha-keto acid dehydrogenase complex, mitochondrial N184S, P11182 | 0.168 ± 0.38 |
| Lipoamide acyltransferase component of branched-chain alpha-keto acid dehydrogenase complex, mitochondrial N184W, P11182 | -0.179 ± 0.1 |
| Lipoamide acyltransferase component of branched-chain alpha-keto acid dehydrogenase complex, mitochondrial N185A, P11182 | -0.21 ± 0.074 |
| Lipoamide acyltransferase component of branched-chain alpha-keto acid dehydrogenase complex, mitochondrial N185D, P11182 | -0.178 ± 0.092 |
| Lipoamide acyltransferase component of branched-chain alpha-keto acid dehydrogenase complex, mitochondrial N185E, P11182 | -0.09 ± 0.086 |
| Lipoamide acyltransferase component of branched-chain alpha-keto acid dehydrogenase complex, mitochondrial N185H, P11182 | -0.164 ± 0.16 |
| Lipoamide acyltransferase component of branched-chain alpha-keto acid dehydrogenase complex, mitochondrial N185I, P11182 | -0.83 ± 0.09 |
| Lipoamide acyltransferase component of branched-chain alpha-keto acid dehydrogenase complex, mitochondrial N185K, P11182 | 0.016 ± 0.1 |
| Lipoamide acyltransferase component of branched-chain alpha-keto acid dehydrogenase complex, mitochondrial N185L, P11182 | -0.514 ± 0.26 |
| Lipoamide acyltransferase component of branched-chain alpha-keto acid dehydrogenase complex, mitochondrial N185M, P11182 | -0.273 ± 0.18 |
| Lipoamide acyltransferase component of branched-chain alpha-keto acid dehydrogenase complex, mitochondrial N185P, P11182 | -1.01 ± 0.17 |
| Lipoamide acyltransferase component of branched-chain alpha-keto acid dehydrogenase complex, mitochondrial N185Q, P11182 | -0.155 ± 0.11 |
| Lipoamide acyltransferase component of branched-chain alpha-keto acid dehydrogenase complex, mitochondrial N185R, P11182 | -0.165 ± 0.1 |
| Lipoamide acyltransferase component of branched-chain alpha-keto acid dehydrogenase complex, mitochondrial N185V, P11182 | -0.744 ± 0.1 |
| Lipoamide acyltransferase component of branched-chain alpha-keto acid dehydrogenase complex, mitochondrial N185W, P11182 | -0.688 ± 0.16 |
| Lipoamide acyltransferase component of branched-chain alpha-keto acid dehydrogenase complex, mitochondrial N207A, P11182 | 0.034 ± 0.04 |
| Lipoamide acyltransferase component of branched-chain alpha-keto acid dehydrogenase complex, mitochondrial N207C, P11182 | -0.302 ± 0.1 |
| Lipoamide acyltransferase component of branched-chain alpha-keto acid dehydrogenase complex, mitochondrial N207D, P11182 | -0.009 ± 0.049 |
| Lipoamide acyltransferase component of branched-chain alpha-keto acid dehydrogenase complex, mitochondrial N207E, P11182 | -0.043 ± 0.047 |
| Lipoamide acyltransferase component of branched-chain alpha-keto acid dehydrogenase complex, mitochondrial N207F, P11182 | -0.339 ± 0.091 |

| Substance | abundance fitness |
| --- | --- |
| Lipoamide acyltransferase component of branched-chain alpha-keto acid dehydrogenase complex, mitochondrial N207G, P11182 | -0.03 ± 0.042 |
| Lipoamide acyltransferase component of branched-chain alpha-keto acid dehydrogenase complex, mitochondrial N207I, P11182 | -0.261 ± 0.14 |
| Lipoamide acyltransferase component of branched-chain alpha-keto acid dehydrogenase complex, mitochondrial N207L, P11182 | -0.048 ± 0.048 |
| Lipoamide acyltransferase component of branched-chain alpha-keto acid dehydrogenase complex, mitochondrial N207P, P11182 | -0.199 ± 0.051 |
| Lipoamide acyltransferase component of branched-chain alpha-keto acid dehydrogenase complex, mitochondrial N207Q, P11182 | 0.035 ± 0.066 |
| Lipoamide acyltransferase component of branched-chain alpha-keto acid dehydrogenase complex, mitochondrial N207S, P11182 | -0.017 ± 0.044 |
| Lipoamide acyltransferase component of branched-chain alpha-keto acid dehydrogenase complex, mitochondrial N207V, P11182 | -0.11 ± 0.042 |
| Lipoamide acyltransferase component of branched-chain alpha-keto acid dehydrogenase complex, mitochondrial N207W, P11182 | -0.183 ± 0.041 |
| Lipoamide acyltransferase component of branched-chain alpha-keto acid dehydrogenase complex, mitochondrial N207Y, P11182 | -0.453 ± 0.23 |
| Lipoamide acyltransferase component of branched-chain alpha-keto acid dehydrogenase complex, mitochondrial P175A, P11182 | 0.023 ± 0.044 |
| Lipoamide acyltransferase component of branched-chain alpha-keto acid dehydrogenase complex, mitochondrial P175C, P11182 | -0.151 ± 0.062 |
| Lipoamide acyltransferase component of branched-chain alpha-keto acid dehydrogenase complex, mitochondrial P175D, P11182 | 0.038 ± 0.048 |
| Lipoamide acyltransferase component of branched-chain alpha-keto acid dehydrogenase complex, mitochondrial P175E, P11182 | 0.037 ± 0.047 |
| Lipoamide acyltransferase component of branched-chain alpha-keto acid dehydrogenase complex, mitochondrial P175F, P11182 | -0.098 ± 0.064 |
| Lipoamide acyltransferase component of branched-chain alpha-keto acid dehydrogenase complex, mitochondrial P175G, P11182 | -0.268 ± 0.035 |
| Lipoamide acyltransferase component of branched-chain alpha-keto acid dehydrogenase complex, mitochondrial P175I, P11182 | -0.133 ± 0.065 |
| Lipoamide acyltransferase component of branched-chain alpha-keto acid dehydrogenase complex, mitochondrial P175K, P11182 | 0.024 ± 0.042 |
| Lipoamide acyltransferase component of branched-chain alpha-keto acid dehydrogenase complex, mitochondrial P175L, P11182 | -0.119 ± 0.056 |
| Lipoamide acyltransferase component of branched-chain alpha-keto acid dehydrogenase complex, mitochondrial P175M, P11182 | -0.051 ± 0.081 |
| Lipoamide acyltransferase component of branched-chain alpha-keto acid dehydrogenase complex, mitochondrial P175N, P11182 | -0.096 ± 0.053 |
| Lipoamide acyltransferase component of branched-chain alpha-keto acid dehydrogenase complex, mitochondrial P175Q, P11182 | -0.008 ± 0.048 |
| Lipoamide acyltransferase component of branched-chain alpha-keto acid dehydrogenase complex, mitochondrial P175R, P11182 | -0.16 ± 0.041 |
| Lipoamide acyltransferase component of branched-chain alpha-keto acid dehydrogenase complex, mitochondrial P175S, P11182 | -0.127 ± 0.044 |
| Lipoamide acyltransferase component of branched-chain alpha-keto acid dehydrogenase complex, mitochondrial P175T, P11182 | -0.016 ± 0.052 |
